# Read-outs that look alike come from different tables or passages of the source.
# B1: hP1R-WT: intact human PTH-1 receptor (protein)
# chain: DADDVMTKEEQIFLLHRAQAQCEKRLKEVLQRPASIMESDKGWTSASTSGKPRKDKASGKLYPESEEDKEAPTGSRYRGRPCLPEWDHILCWPLGAPGEVVAVPCPDYIYDFNHKGHAYRRCDRNGSWELVPGHNRTWANYSECVKFLTNETREREVFDRLGMIYTVGYSVSLASLTVAVLILAYFRRLHCTRNYIHMHLFLSFMLRAVSIFVKDAVLYSGATLDEAERLTEEELRAIAQAPPPPATAAAGYAGCRVAVTFFLYFLATNYYWILVEGLYLHSLIFMAFFSEKKYLWGFTVFGWGLPAVFVAVWVSVRATLANTGCWDLSSGNKKWIIQVPILASIVLNFILFINIVRVLATKLRETNAGRCDTRQQYRKLLKSTLVLMPLFGVHYIVFMATPYTEVSGTLWQVQMHYEMLFNSFQGFFVAIIYCFCNGEVQAEIKKSWSRWTLALDFKRKARSGSSSYSYGPMVSHTSVTNVGPRVGLGLPLSPRLLPTATTNGHPQLPGHAKPGTPALETLETTPPAMAAPKDDGFLNGSCSGLDEEASGPERPPALLQEEWETVM
# B2: hP1R-Tether(1–9): tethered human PTH-1 receptor: PTH(1–9) and four glycine spacer inserted between residues 23 and 182 of hP1R-delNT (protein)
# chain: MGTARIAPGLALLLCCPVLSSAYAVSEIQLMHGGGGEVFDRLGMIYTVGYSVSLASLTVAVLILAYFRRLHCTRNYIHMHLFLSFMLRAVSIFVKDAVLYSGATLDEAERLTEEELRAIAQAPPPPATAAAGYAGCRVAVTFFLYFLATNYYWILVEGLYLHSLIFMAFFSEKKYLWGFTVFGWGLPAVFVAVWVSVRATLANTGCWDLSSGNKKWIIQVPILASIVLNFILFINIVRVLATKLRETNAGRCDTRQQYRKLLKSTLVLMPLFGVHYIVFMATPYTEVSGTLWQVQMHYEMLFNSFQGFFVAIIYCFCNGEVQAEIKKSWSRWTLALDFKRKARSGSSSYSYGPMVSHTSVTNVGPRVGLGLPLSPRLLPTATTNGHPQLPGHAKPGTPALETLETTPPAMAAPKDDGFLNGSCSGLDEEASGPERPPALLQEEWETVM
# B3: hP1R-[R^11]-Tether(1–11): Made from hTether-1 by inserting Asn10-Arg11 between His9 and first Gly of linker (protein)
# chain: MGTARIAPGLALLLCCPVLSSAYAVSEIQLMHNRGGGGEVFDRLGMIYTVGYSVSLASLTVAVLILAYFRRLHCTRNYIHMHLFLSFMLRAVSIFVKDAVLYSGATLDEAERLTEEELRAIAQAPPPPATAAAGYAGCRVAVTFFLYFLATNYYWILVEGLYLHSLIFMAFFSEKKYLWGFTVFGWGLPAVFVAVWVSVRATLANTGCWDLSSGNKKWIIQVPILASIVLNFILFINIVRVLATKLRETNAGRCDTRQQYRKLLKSTLVLMPLFGVHYIVFMATPYTEVSGTLWQVQMHYEMLFNSFQGFFVAIIYCFCNGEVQAEIKKSWSRWTLALDFKRKARSGSSSYSYGPMVSHTSVTNVGPRVGLGLPLSPRLLPTATTNGHPQLPGHAKPGTPALETLETTPPAMAAPKDDGFLNGSCSGLDEEASGPERPPALLQEEWETVM
# B4: hP1R-Tether(1–10): hP1R-Tether construct with the ligand chain extended to position 10 (protein)
# chain: EIQLMHNGGGGEVFDRLGMIYTVGYSVSLASLTVAVLILAYFRRLHCTRNYIHMHLFLSFMLRAVSIFVKDAVLYSGATLDEAERLTEEELRAIAQAPPPPATAAAGYAGCRVAVTFFLYFLATNYYWILVEGLYLHSLIFMAFFSEKKYLWGFTVFGWGLPAVFVAVWVSVRATLANTGCWDLSSGNKKWIIQVPILASIVLNFILFINIVRVLATKLRETNAGRCDTRQQYRKLLKSTLVLMPLFGVHYIVFMATPYTEVSGTLWQVQMHYEMLFNSFQGFFVAIIYCFCNGEVQAEIKKSWSRWTLALDFKRKARSGSSSYSYGPMVSHTSVTNVGPRVGLGLPLSPRLLPTATTNGHPQLPGHAKPGTPALETLETTPPAMAAPKDDGFLNGSCSGLDEEASGPERPPALLQEEWETVM
# B5: hP1R-Tether(1–11): hP1R-Tether construct with the ligand chain extended to position 11, native leucine at 11 (protein)
# chain: EIQLMHNLGGGGEVFDRLGMIYTVGYSVSLASLTVAVLILAYFRRLHCTRNYIHMHLFLSFMLRAVSIFVKDAVLYSGATLDEAERLTEEELRAIAQAPPPPATAAAGYAGCRVAVTFFLYFLATNYYWILVEGLYLHSLIFMAFFSEKKYLWGFTVFGWGLPAVFVAVWVSVRATLANTGCWDLSSGNKKWIIQVPILASIVLNFILFINIVRVLATKLRETNAGRCDTRQQYRKLLKSTLVLMPLFGVHYIVFMATPYTEVSGTLWQVQMHYEMLFNSFQGFFVAIIYCFCNGEVQAEIKKSWSRWTLALDFKRKARSGSSSYSYGPMVSHTSVTNVGPRVGLGLPLSPRLLPTATTNGHPQLPGHAKPGTPALETLETTPPAMAAPKDDGFLNGSCSGLDEEASGPERPPALLQEEWETVM
# Tests used:
# COS-7 cells [1] = experiment: agonist-induced cAMP signaling of receptor constructs in transiently transfected COS-7 cells; format: cell-based
# Experimental: (§1) Cell Culture: COS-7 cells were cultured at 37° C. in T-75 flasks ([…] in Dulbecco's modified Eagle's medium (DMEM) supplemented with fetal bovine serum (10%), penicillin G (20 units/ml), streptomycin sulfate (20 μg/ml) and amphotericin B (0.05 μg/ml) in a humidified atmosphere containing 5% CO2. Cells were sub-cultured in 24-well plates and, when confluent, were treated with fresh media and shifted to 33° C. for 12 to 24 h prior to the assay (Bergwitz, C., et al., J. Biol. Chem. 272:28861–28868 (1997); Abell, A., et al., J. Biol. Chem. 271:4518–4527 (1996)).
# PTH Receptor mutagenesis and COS-7 cell expression: The pcDNA-1-based plasmid encoding the intact HPTH-1 receptor (HK-WT in reference (Schipani, E., et al., Endocrinol. 132:2157–2165 (1993)) and herein called hP1R-WT) was used for studies in COS-7 cells. The truncated human PTH-1 receptor (hP1R-de1Nt) (FIG. 18) was constructed from the HK-WT plasmid by oligonucleotide-directed mutagenesis (Kunkel, T. A., Proc. Natl. Acad. Sci. USA 82:488–492 (1985)). […]
# cAMP Stimulation: Stimulation of cells with peptide analogs was performed in 24-well plates. […] The cAMP content of the diluted lysate was determined by radioimmunoassay.
# COS-7 cells [2] = experiment: basal cAMP signaling of tethered ligand/receptor constructs in transiently transfected COS-7 cells; format: cell-based; settings: for level of basal cAMP signaling: no agonist
# Experimental: as §1
# PTH Receptor mutagenesis and COS-7 cell expression: The pcDNA-1-based plasmid encoding the intact HPTH-1 receptor (HK-WT in reference (Schipani, E., et al., Endocrinol. 132:2157–2165 (1993)) and herein called hP1R-WT) was used for studies in COS-7 cells. The truncated human PTH-1 receptor (hP1R-de1Nt) (FIG. 18) was constructed from the HK-WT plasmid by oligonucleotide-directed mutagenesis (Kunkel, T. A., Proc. Natl. Acad. Sci. USA 82:488–492 (1985)). This mutant receptor is deleted for residues 24 to 181 and, assuming that signal peptidase cleavage occurs between Ala^22 and Tyr^23 (Nielsen, H., et al., Protein Engineering 10:1–6 (1997)), is predicted to have Tyr^23 as the N-terminal residue joined directly to Glu^182 located at or near the boundary of the first transmembrane domain. A similarly truncated rat PTH receptor was described by us previously (Luck, M., et al., Molec. Endocrinol. 13:670–680 (1999)). The tethered human PTH-1 receptor [hP1R-Tether(1–9)] (hTether-1 in FIG. 17) is based on the hP1R-de1NT construct, and has PTH(1–9) and a four glycine spacer (AVSEIQLMHGGGG) (SEQ ID NO: 72) inserted between residues 23 and 182. Assuming that signal peptidase cleavage occurs between Ala^22 and Tyr^23, hP1R-Tether(1–9) is predicted to have Tyr^23 as the N-terminal residue joined directly to Ala of the ligand. Analogs of hP1R-Tether(1–9) were made in a similar fashion. Transient transfections of COS-7 cells were performed using DEAE-dextran and 200 ng of cesium chloride-purified plasmid DNA per well of a 24-well plate, as described previously (Bergwitz, C., et al., J. Biol. Chem. 272:28861–28868 (1997)).
# cAMP Stimulation: Stimulation of cells with peptide analogs was performed in 24-well plates. Cells were rinsed with 0.5 mL of binding buffer (50 mM Tris-HCl, 100 mM NaCl, 5 mM KCl, 2 mM CaCl2, 5% heat-inactivated horse serum, 0.5% fetal bovine serum, adjusted to pH 7.7 with HCl) and treated with 200 μL of cAMP assay buffer (Dulbecco's modified Eagle's medium containing 2 mM 3-isobutyl-1-methylxanthine, 1 mg/mL bovine serum albumin, 35 mM Hepes-NaOH, pH 7.4) and 100 μL of binding buffer containing varying amounts of peptide analog (final volume=300 μL). The medium was removed after incubation for 1 h at room temperature, and the cells were frozen (−80° C.), lysed with 0.5 mL 50 mM HCl, and refrozen (−80° C.). The cAMP content of the diluted lysate was determined by radioimmunoassay.
Molecule,time of maximal agonist-induced signaling (COS-7 cells [1]) [min],level of basal cAMP signaling (COS-7 cells [2]),other results
B1,40,–,–
B2,–,–,enhancement in the basal level of cAMP relative to hde1NT (COS-7 cells [2]; absence of any agonist peptide): ~5 fold
B3,40,increased still further,basal signaling compared with maximum agonist-stimulated response of hP1R-WT (COS-7 cells [2]): approached the maximum response attained by hP1R-WT; time of maximum level of basal cAMP signaling (COS-7 cells [2]): 40 min; increase in basal cAMP signaling (COS-7 cells [2]; comparator not restated): 20 fold; basal signaling compared with maximum agonist-stimulated response of hP1R-WT (COS-7 cells [2]; listed as hP1R-[R^11]Tether-(1–11)): approached the maximum agonist-stimulated response attained by hP1R-wildtype
B4,–,"moderate, but significant, improvements",–
B5,–,"moderate, but significant, improvements",–

# Source: patent US7057012B1, “PTH functional domain conjugate peptides, derivatives thereof and novel tethered ligand-receptor molecules” (The General Hospital Corporation, priority 1998, dated 2006)
